Key:
[1] = system: U87vIIILuc Glioblastoma Cells; experiment: Survival of NOD-SCID mice intracranially implanted with U87vIIILuc glioblastoma cells (Example 2); type: in vivo; settings: intracranial U87vIIILuc; Compound 1 60 mg/kg IP three times per week; TMZ 34 mg/kg orally once daily for five days; 6 mice per group
Description: (§1) Tumor Implantation. 9 week-old male NOD-SCID mice (Charles River Laboratories, Wilmington, Mass., USA) were anesthetized by 2% isoflurane. 5×10^4 U87vIIIluc tumor cells were implanted intracranially using the following stereotactic coordinates: 0.5 mm posterior, 2.5 mm lateral, and 3.5 mm intraparenchymal Animal care was kept in strict accordance with the institutional animal care and use committee of Massachusetts General Hospital.
(§2) Drug Administration. After randomization, 24 mice were divided into 4 groups (PBS, Compound 1 only, TMZ only, and Compound 1+TMZ) with 6 mice per group. PBS and Compound 1 (60 mg/kg) were delivered intraperitoneally in 200 ul IP volumes three times per week throughout the study until mice reached established criteria for euthanasia. Temozolomide (TMZ) was delivered orally (34 mg/kg) once daily for five days.
(§3) Results are shown in FIG. 1 (Compound 1=VEGFR2 specific inhibitor represented by SEQ ID NO: 4; Compound 2=TMZ; PBS=phosphate buffered saline (vehicle control)). The Y-axis indicates percent survival within each group over the length of the study Animals were followed for survival and sacrificed at the first sign of morbidity. Mean survival was 19, 29, 32 and 47 days for PBS, Compound 1, TMZ, and Compound 1+TMZ, respectively.

[2] = system: U87vIIILuc Glioblastoma Cells; experiment: Bioluminescent imaging (BLI) of U87vIIILuc tumor growth (Example 2); type: in vivo, NOD-SCID mice; settings: Compound 1 60 mg/kg IP 3x/week, TMZ 34 mg/kg orally QD×5
Description: as §1, §2
Scanning Mice were anesthetized using 1-2% isoflurane before intraperitoneal injection of D-luciferin salt (150 mg/kg in 200 ul PBS; Caliper Life Sciences, Hopkinton Mass.). Bioluminescent imaging (BLI) was performed in a high sensitivity, cooled CCD camera (IVIS®, Xenogen) at five-minute intervals until peak values were recorded for all mice. BLI imaging was performed on days 6, 13, 20 and 26.
Image Analysis. Living Image® software (Xenogen) was used for image capture and signal quantification. Imaging schedules are described in the treatment groups. […]

[3] = system: CD31 (endothelial blood vessel formation marker); experiment: Immunohistochemical staining for CD31 on brain tissue sections (microvascular density); type: in vivo, NOD-SCID mice; settings: Day 14 IHC analysis; compared to TMZ or PBS groups
Procedure: IHC staining for CD31 was performed on paraffin-embedded mouse brain tissue sections using Rat on mouse HRP-Polymer® (Biocare Medical). Briefly, sections were deparaffinized, rehydrated and treated with peroxidase (PEROXIDAZED 1, Biocare Medical) for 5 min at room temperature. To expose antigens, sections were treated with trypsin (CAREZYME 1®, Biocare Medical) for 10 min at 37° C. Unspecific protein was blocked by using Rodent Block M® (Biocare Medical) for 30 min. Thereafter, sections were incubated with rat monoclonal anti-CD31 (1:50, Biocare Medical) antibody for 2 h at room temperature. Subsequently, sections were incubated with Rat Probe® (Biocare Medical) for 15 min at room temperature, followed by incubation with Rat-Polymer HRP® (Biocare Medical) for 20 min at room temperature.
To visualize antigens in the tissue, DAB chromogen substrate (Biocare Medical) were used for 5 min Finally, sections were lightly counter-stained with Mayer's hematoxylin. For a negative control, the incubation step with primary antibody was omitted.
Immunohistochemical staining against CD31 (endothelial blood vessel formation marker), Ki67 (cell proliferation marker) or cleaved-caspase 3 (cellular apoptosis marker) was performed on paraffin-embedded brain tissue sections. […]

[4] = system: U87vIIILuc Glioblastoma Cells; experiment: Survival in U87vIIILuc glioma model, triple administration with radiation therapy (Example 3); type: in vivo, NOD-SCID mice; settings: radiation insensitive glioblastoma model; compared to RT alone or standard of care (TMZ+RT)
Procedure: Tumor implantation was performed as described above in Example 2.
Drug Administration. After randomization, 32 mice were divided into 4 groups (PBS, Radiation Therapy (RT) only, Compound 2 & RT, and Compound 1+Compound 2 & RT) with 8 mice per group. PBS and Compound 1 (60 mg/kg) were delivered intraperitoneally in 200 ul IP volumes three times per week throughout the study until mice reached established criteria for euthanasia. Compound 2 (TMZ) was delivered orally (34 mg/kg) once daily for five days. Compound 2 and RT treatments were initiated after the third dose of Compound 1.
Radiation Therapy. Mice were shielded in a custom-designed block with an aperture of 0.8 cm. After anesthetic induction (ketamine 118 mg/kg i.p.+xylazine 11.8 mg/kg i.p.), mice were irradiated to a total dose of 10 Gy in three daily fractions. 10 Gy were experimentally determined to be the highest tolerable dose for this model.
as §3, with “FIG. 5” for “FIG. 1”, “2=TMZ; RT=Radiation Therapy;” for “2=TMZ;”, “was 22, 23, 33” for “was 19, 29, 32”, “PBS, Radiation Therapy,” for “PBS,”, “Compound 2 & RT,” for “Compound 1, TMZ,”, “Compound 1+Compound 2 & RT,” for “Compound 1+TMZ,”

| Molecule | Mean survival [1] | Day 13 mean BLI values (photons/sec×10^6) increased by, fold [2] | Blood vessel formation by CD31 staining [3] | Survival benefit (in words) [4] |
| --- | --- | --- | --- | --- |
| Cn1nnc2c(C(N)=O)ncn2c1=O [TMZ, temozolomide] | 32 days | 6.17×10^1 fold | – | – |
| Compound 1: VEGFR2 specific inhibitor represented by SEQ ID NO: 4, 10Fn3-based, modified with a single branched 40 kDa PEG at the C-terminal cysteine (protein, branched 40 kDa PEG at C-terminal cysteine) GEVVAATPTSLLISWRHPHFPTRYYRITYGETGGNSPVQEFTVPLQPPTATISGLKPGVDYTITVYAVTDGRNGRLLSIPISINYRTEIDKPCQ | 29 days | 1.79×10^2 fold | strongly reduced blood vessel formation | can enhance survival |

— patent US20100210511A1, “Combination VEGFR2 Therapy with Temozolomide” (Bristol-Myers Squibb Company, priority 2009, published 2010)
